Values joined by “and” are separate entries in the source; they are usually repeats but may differ in a detail not shown here. Identical values can stand only once. Like-named read-outs stand apart in the source and are kept apart here.

Eight molecules from publication doi:10.1101/099705 can be followed below.

The target of test [1] is TbMP18-FL (T. brucei (strain Lister 427)). The experiment in a line: SEC.
For test [2] the target is unchanged.
The target in test [3] is TbMP24-OB (T. brucei (strain Lister 427)). The experiment in a line: SEC.
Test [4] deals with TbMP42-FL (T. brucei (strain Lister 427)). The experiment in a line: SEC.
In test [5] the target is TbMP42-OB (T. brucei (strain Lister 427)). The experiment in a line: SEC.
Test [6] addresses TbMP81-FL (T. brucei (strain Lister 427)). The experiment in a line: SEC.
The target of test [7] is TbMP81-OB (T. brucei (strain Lister 427)). Briefly: SEC.
Test [8] has as its target TbMP18-FL (T. brucei (strain Lister 427)). The experiment in a line: SEC. This is another data set of the same source.

For the molecule TbMP18-FL (natural protein), the stoichiometry N in test [1] is 4.

With TbMP24-FL (natural protein), the stoichiometry N (TbMP24-FL:TbMP18-FL (molar ratio)) in test [1] was 2 and 1.5; in test [2], 1.1.

Take TbMP24-OB (domain or fragment): the stoichiometry N (TbMP24-OB:TbMP18-FL (molar ratio)) in test [1] came to 2. In test [3], this molecule gave a stoichiometry N of 3.

As for TbMP42-FL (natural protein), in test [4], the stoichiometry N worked out at 3.

For TbMP42-OB (domain or fragment), in test [5], the stoichiometry N came to 3.

Regarding TbMP81-FL (natural protein), the stoichiometry N in test [6] came out at 2.

In turn, TbMP81-OB (domain or fragment) showed a stoichiometry N in test [7] of 2.

B1: TbMP63-OB (domain or fragment)
chain: SAIGASWAETELIPHAQCVSNITIVGRVLDVSQASENVSHVTVFVEGERSGEEETLTLCCFGEVSQKIRGTLKRNATIFASGTLRLHPVYEASNNKYYVSPVVHVSMPTGTLAVIT
For the molecule B1, the stoichiometry N (TbMP63-OB:TbMP18-FL (molar ratio)) in test [8] was 1 and 1.5; in test [2] it was 0.67.
